This data set concerns the molecule itself. In words: crystal structure.

One may read the stoichiometry N as a count of units in the complex or per binding partner.

B1: recombinant mouse apoptosis inducing factor AIFΔ1–101 (domain or fragment, UniProt Q9Z0X1 102-612, looked up)
chain: GLSPEEKQRRAIASATEGGSVPQIRAPSHVPFLLIGGGTAAFAAARSIRARDPGARVLIVSEDPELPYMRPPLSKELWFSDDPNVTKTLQFRQWNGKERSIYFQPPSFYVSAQDLPNIENGGVAVLTGKKVVHLDVRGNMVKLNDGSQITFEKCLIATGGTPRSLSAIDRAGAEVKSRTTLFRKIGDFRALEKISREVKSITVIGGGFLGSELACALGRKSQASGIEVIQLFPEKGNMGKILPQYLSNWTMEKVKREGVKVMPNAIVQSVGVSGGRLLIKLKDGRKVETDHIVTAVGLEPNVELAKTGGLEIDSDFGGFRVNAELQARSNIWVAGDAACFYDIKLGRRRVEHHDHAVVSGRLAGENMTGAAKPYWHQSMFWSDLGPDVGYEAIGLVDSSLPTVGVFAKATAQDNPKSATEQSGTGIRSESETESEASEITIPPSAPAVPQVPVEGEDYGKGVIFYLRDKVVVGIVLWNVFNRMPIARKIIKDGEQHEDLNEVAKLFNIHED
For the protein B1, the “stoichiometry N” value was determined as 2.

The values above are taken from PMC2726748 (Journal of molecular biology, 2009).
